For this assay, the target named is native apolipoprotein D (apoD) from human plasma (human) (UniProt P05090). As to the kind of experiment: ELISA; detergent-free dual-specific ELISA with purified components; capture anti-apoD D544, detection anti-apoB LDL20-biotin; LDL 333 ng/ml (or VLDL 1000 ng/ml, also with detergent) alone or with apoD 100 ng/ml, recombinant apoD 100 ng/ml, HDL2 or HDL3 1000 ng/ml; read as absorbance relative to LDL alone. (An ELISA detects its analyte on a solid surface through an enzyme-linked reagent.)
Sequence of UniProt P05090 (P05090 21-189): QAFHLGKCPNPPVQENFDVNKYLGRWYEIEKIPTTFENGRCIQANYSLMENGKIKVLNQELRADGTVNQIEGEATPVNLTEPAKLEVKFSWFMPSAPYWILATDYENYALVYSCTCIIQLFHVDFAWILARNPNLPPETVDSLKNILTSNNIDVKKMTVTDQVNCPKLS

In the case of “purified low density lipoprotein (LDL) (complex)”, the fold enhancement of LDL binding against LDL alone was found to be 6 fold.

The record behind these values is article PMC4267786.
